# Residue numbers refer to the chain shown, from its start.
# T1: human EphA7 extracellular region-SEAP-His protein (human, UniProt Q15375 28-555)
# T1 construct: extracellular domain; also called hEphA7-SEAP-His
# T1 sequence (looked up): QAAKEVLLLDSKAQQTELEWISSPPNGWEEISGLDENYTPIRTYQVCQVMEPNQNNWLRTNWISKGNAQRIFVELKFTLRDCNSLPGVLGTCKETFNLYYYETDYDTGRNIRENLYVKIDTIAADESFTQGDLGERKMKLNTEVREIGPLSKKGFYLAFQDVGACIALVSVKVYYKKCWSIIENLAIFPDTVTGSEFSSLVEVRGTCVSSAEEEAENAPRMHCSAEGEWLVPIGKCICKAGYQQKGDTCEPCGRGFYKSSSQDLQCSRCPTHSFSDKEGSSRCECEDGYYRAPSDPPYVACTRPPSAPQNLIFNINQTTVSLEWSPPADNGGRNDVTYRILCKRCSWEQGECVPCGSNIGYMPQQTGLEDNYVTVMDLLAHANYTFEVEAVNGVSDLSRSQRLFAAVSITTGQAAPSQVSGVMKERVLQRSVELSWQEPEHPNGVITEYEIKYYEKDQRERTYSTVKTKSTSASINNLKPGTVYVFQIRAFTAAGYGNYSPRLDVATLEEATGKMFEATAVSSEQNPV
# T2: human EphB1 extracellular region-SEAP-His protein (human, UniProt P54762 18-540)
# T2 construct: extracellular domain; also called hEphB1-SEAP-His
# T2 sequence (looked up): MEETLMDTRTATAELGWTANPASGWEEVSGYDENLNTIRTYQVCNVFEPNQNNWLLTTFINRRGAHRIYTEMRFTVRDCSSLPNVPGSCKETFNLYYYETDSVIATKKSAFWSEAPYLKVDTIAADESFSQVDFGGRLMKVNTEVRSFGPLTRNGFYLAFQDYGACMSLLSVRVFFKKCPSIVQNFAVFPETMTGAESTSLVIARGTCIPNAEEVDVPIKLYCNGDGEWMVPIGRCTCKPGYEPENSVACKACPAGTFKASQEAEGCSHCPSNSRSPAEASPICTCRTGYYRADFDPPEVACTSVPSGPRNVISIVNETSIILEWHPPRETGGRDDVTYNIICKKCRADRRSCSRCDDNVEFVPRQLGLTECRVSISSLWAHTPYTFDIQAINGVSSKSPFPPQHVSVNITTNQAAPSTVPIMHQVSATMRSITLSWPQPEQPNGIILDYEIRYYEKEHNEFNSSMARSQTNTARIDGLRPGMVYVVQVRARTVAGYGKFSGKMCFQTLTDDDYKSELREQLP
# T3: human EphB4 extracellular region-SEAP-His protein (human, UniProt P54760 16-539)
# T3 construct: extracellular domain; also called hEphB4-SEAP-His
# T3 sequence (looked up): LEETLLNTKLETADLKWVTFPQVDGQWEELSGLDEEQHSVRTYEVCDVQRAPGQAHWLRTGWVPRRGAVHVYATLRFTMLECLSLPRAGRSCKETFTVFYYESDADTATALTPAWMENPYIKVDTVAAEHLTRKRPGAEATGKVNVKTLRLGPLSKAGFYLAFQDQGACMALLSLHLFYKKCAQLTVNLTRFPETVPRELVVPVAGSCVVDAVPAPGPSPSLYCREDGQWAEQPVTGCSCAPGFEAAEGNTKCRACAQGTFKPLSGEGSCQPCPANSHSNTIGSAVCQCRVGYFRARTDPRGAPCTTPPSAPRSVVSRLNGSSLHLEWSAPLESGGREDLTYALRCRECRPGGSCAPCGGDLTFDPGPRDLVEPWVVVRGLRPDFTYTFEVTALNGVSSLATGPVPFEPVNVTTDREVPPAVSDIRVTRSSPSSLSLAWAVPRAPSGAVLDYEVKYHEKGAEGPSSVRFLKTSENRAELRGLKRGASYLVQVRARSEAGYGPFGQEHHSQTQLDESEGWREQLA
# T4: human EphB6 extracellular region-SEAP-His protein (human, UniProt O15197 32-594)
# T4 construct: extracellular domain; also called hEphB6-SEAP-His
# T4 sequence (looked up): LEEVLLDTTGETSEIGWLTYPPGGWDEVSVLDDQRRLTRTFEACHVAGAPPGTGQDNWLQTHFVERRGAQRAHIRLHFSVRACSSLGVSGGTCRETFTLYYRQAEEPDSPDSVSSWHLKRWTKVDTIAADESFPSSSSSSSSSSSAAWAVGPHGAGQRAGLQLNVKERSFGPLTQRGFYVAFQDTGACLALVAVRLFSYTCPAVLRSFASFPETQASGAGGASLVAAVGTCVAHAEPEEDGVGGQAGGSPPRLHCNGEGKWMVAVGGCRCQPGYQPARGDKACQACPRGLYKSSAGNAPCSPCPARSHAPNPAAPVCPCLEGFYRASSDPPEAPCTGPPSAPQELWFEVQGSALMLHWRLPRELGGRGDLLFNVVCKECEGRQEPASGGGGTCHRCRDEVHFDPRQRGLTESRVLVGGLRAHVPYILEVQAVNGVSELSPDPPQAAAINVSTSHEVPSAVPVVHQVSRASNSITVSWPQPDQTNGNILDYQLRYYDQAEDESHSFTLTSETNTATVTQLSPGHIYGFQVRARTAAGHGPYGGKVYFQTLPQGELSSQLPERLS
# B1: humanized antibody No. 77 (antibody, human IgG1, kappa)
# heavy: QVQLVQSGSELKKPGASVKVSCKASGYTFTDYSMHWVRQAPGQGLEWMGWINTETGEPTYADDFKGRFVFSLDTSVSTAYLQISSLKAEDTAVYYCARIPLYYYGSRYWYFDVWGQGTTVTVSSASTKGPSVFPLAPSSKSTSGGTAALGCLVKDYFPEPVTVSWNSGALTSGVHTFPAVLQSSGLYSLSSVVTVPSSSLGTQTYICNVNHKPSNTKVDKRVEPKSCDKTHTCPPCPAPPAAAPSVFLFPPKPKDTLMISRTPEVTCVVVDVSHEDPEVQFNWYVDGVEVHNAKTKPREEQFNSTFRVVSVLTVVHQDWLNGKEYKCKVSNKGLPAPIEKTISKTKGQPREPQVYTLPPSREEMTKNQVSLTCLVKGFYPSDIAVEWESNGQPENNYKTTPPMLDSDGSFFLYSKLTVDKSRWQQGNVFSCSVMHEALHNHYTQKSLSLSPG
# light: DIQMTQSPSSLSASVGDRVTITCRASENIYRNLAWYQQKPGKAPKLLVYAATNLADGVPSRFSGSGSGTDYTLTISSLQPEDFATYYCQHFWGTPWTFGQGTKVEIKRTVAAPSVFIFPPSDEQLKSGTASVVCLLNNFYPREAKVQWKVDNALQSGNSQESVTEQDSKDSTYSLSSTLTLSKADYEKHKVYACEVTHQGLSSPVTKSFNRGEC
# notes: human Ig kappa; also called L1-4/HK1
# B2: humanized antibody No. 78 (antibody, human IgG1, kappa)
# heavy: B1 heavy with E46K
# light: B1 light
# notes: human Ig kappa; also called L1-4/HK2
# B3: humanized antibody No. 87 (antibody, human IgG1, kappa)
# heavy: B1 heavy with D62Q, D63G, K65T
# light: B1 light with K45Q, V48L
# notes: human Ig kappa; also called L1-6/HA1
# B4: humanized antibody No. 88 (antibody, human IgG1, kappa)
# heavy: B1 heavy with E46K, D62Q, D63G, K65T
# light: B1 light with K45Q, V48L
# notes: human Ig kappa; also called L1-6/HA2
# B5: humanized antibody No. 89 (antibody, human IgG1, kappa)
# heavy: B1 heavy with V2I, E46K, D62Q, D63G, K65T
# light: B1 light with K45Q, V48L
# notes: human Ig kappa; also called L1-6/HA4
# B6: humanized antibody No. 82 (antibody, human IgG1, kappa)
# heavy: B1 heavy with E46K, D62Q, D63G, K65T
# light: B1 light with V48L, P80S
# notes: human Ig kappa; also called L1-5/HA2
# B7: humanized antibody No. 83 (antibody, human IgG1, kappa)
# heavy: B1 heavy with V2I, E46K, D62Q, D63G, K65T
# light: B1 light with V48L, P80S
# notes: human Ig kappa; also called L1-5/HA4
# B8: humanized antibody No. 81 (antibody, human IgG1, kappa)
# heavy: B1 heavy with D62Q, D63G, K65T
# light: B1 light with V48L, P80S
# notes: human Ig kappa; also called L1-5/HA1
# B9: humanized antibody No. 85 (antibody, human IgG1, kappa)
# heavy: B1 heavy with E46K
# light: B1 light with V48L, P80S
# notes: human Ig kappa; also called L1-5/HK2
# B10: humanized antibody No. 92 (antibody, human IgG1, kappa)
# heavy: B1 heavy with V2I, E46K
# light: B1 light with K45Q, V48L
# notes: human Ig kappa; also called L1-6/HK4
# B11: humanized antibody No. 84 (antibody, human IgG1, kappa)
# heavy: B1 heavy
# light: B1 light with V48L, P80S
# notes: human Ig kappa; also called L1-5/HK1
# B12: humanized antibody No. 86 (antibody, human IgG1, kappa)
# heavy: B1 heavy with V2I, E46K
# light: B1 light with V48L, P80S
# notes: human Ig kappa; also called L1-5/HK4
# B13: humanized antibody No. 91 (antibody, human IgG1, kappa)
# heavy: B1 heavy with E46K
# light: B1 light with K45Q, V48L
# notes: human Ig kappa; also called L1-6/HK2
# B14: humanized antibody No. 90 (antibody, human IgG1, kappa)
# heavy: B1 heavy
# light: B1 light with K45Q, V48L
# notes: human Ig kappa; also called L1-6/HK1
# Biological target: T1, human EphA7 extracellular …
# Test: ELISA
# Experimental: (§1) Each well of a 96-well plate (Nunc) was coated with a rabbit anti-6-His antibody (Bethyl Laboratories). Each well was […] After washing with 0.05% Tween 20/PBS (Nacalai Tesque) three times, the SEAP-His protein of human EphA1, EphA2, EphA3, EphA4, EphA5, EphA6, EphA7, EphA8, EphA10, EphB1, EphB2, EphB3, EphB4, or EphB6 was added (final concentration: 1 nM) to each well and incubated at room temperature for 1 hour. After washing three times, the humanized antibody was added to each well and incubated at room temperature for 1 hour. After washing three times, a horseradish peroxidase-labeled donkey […] antibody (Jackson ImmunoResearch Laboratories) was added thereto and incubated at room temperature for 1 hour. After washing three times, TMB Microwell Peroxidase Substrate System (Kirkegaard & Perry Laboratories (KPL)) was added to each well. After confirmation of moderate color development, an equal amount of a reaction stopping solution (1N H₂SO₄, Wako Pure Chemical Industries) was added to each well. The absorbance at 450 nm was read using a microplate reader (Thermo Fisher Scientific).
row,A450 as % of hEphA4-SEAP-His,Binder
1,4.3%,B1
2,5%,B2
3,5.3%,B3
4,6%,B4
5,5.4%,B5
6,5.4%,B6
7,5.5%,B7
8,5.2%,B8
9,4.8%,B9
10,6.4%,B10
11,4.8%,B11
12,5.6%,B12
13,5.6%,B13
14,4.9%,B14

# Biological target: T2, human EphB1 extracellular …
# Test: ELISA
# Experimental: as §1
row,A450 as % of hEphA4-SEAP-His,Binder
1,4.6%,B1
2,5%,B2
3,5.3%,B3
4,6.1%,B4
5,5.7%,B5
6,5.4%,B6
7,5.6%,B7
8,4.9%,B8
9,5%,B9
10,6.9%,B10
11,5.2%,B11
12,5.7%,B12
13,6.6%,B13
14,4.9%,B14

# Biological target: T3, human EphB4 extracellular …
# Test: ELISA
# Experimental: as §1
row,A450 as % of hEphA4-SEAP-His,Binder
1,4.5%,B1
2,5.1%,B2
3,5.5%,B3
4,6.1%,B4
5,5.8%,B5
6,5.7%,B6
7,5.7%,B7
8,5%,B8
9,5.2%,B9
10,6.6%,B10
11,5.4%,B11
12,5.8%,B12
13,6.2%,B13
14,5%,B14

# Biological target: T4, human EphB6 extracellular …
# Test: ELISA
# Experimental: as §1
row,A450 as % of hEphA4-SEAP-His,Binder
1,4.5%,B1
2,5.2%,B2
3,5.3%,B3
4,6.1%,B4
5,4.8%,B5
6,5.5%,B6
7,5.8%,B7
8,5%,B8
9,5.2%,B9
10,6.5%,B10
11,4.9%,B11
12,5.7%,B12
13,6.3%,B13
14,5.2%,B14
